Residue numbers refer to the chain shown, from its start.
Tests used:
Test in all cases: cell-based or functional assay
[1] = target: HIV-1 DU172.17 envelope (Env) on Env.IMC.LucR virus (HIV-1 clade C)
[2] = target: HIV-1 AC10.0.29 envelope (Env) on Env.IMC.LucR virus (HIV-1 clade B)
[3] = target: HIV-1 X1632_S2_B10 envelope (Env) on Env.IMC.LucR virus (HIV-1 clade G)
[4] = target: HIV-1 CNE20 envelope (Env) on Env.IMC.LucR virus (HIV-1 clade BC)
[5] = target: HIV-1 DU422.1 envelope (Env) on Env.IMC.LucR virus (HIV-1 clade C)
[6] = target: HIV-1 REJO4541.67 envelope (Env) on Env.IMC.LucR virus (HIV-1 clade B)
[7] = target: HIV-1 CAP45.2.00.G3 envelope (Env) on Env.IMC.LucR virus (HIV-1 clade C)
[8] = target: HIV-1 ZM233M.PB6 envelope (Env) on Env.IMC.LucR virus (HIV-1 clade C)
[9] = target: HIV-1 WITO4160.33 envelope (Env) on Env.IMC.LucR virus (HIV-1 clade B)
[10] = target: HIV-1 THRO4156.18 envelope (Env) on Env.IMC.LucR virus (HIV-1 clade B)

B1: Germ17 (antibody, V domains shown)
VH: QVDLVQSGAVVKKPGDSVRVSCEAQGYRFPDYIIHWIRRAPGQGPEWMGWMNPMGGQVNIPWKFQGRVSMTRDTSIETAYMDLRGLRSDDTAVYYCVRDRSNGSGKRFESSNWFLDLWGRGTLVTVSS
VL: QSALTQPRSVSGSPGQSVTISCTGTHNLVSWCQHHPGKAPKLMIYDFNKRPSGVPDRFSGSGSGGTASLTISGLQAEDEAEYFCWAYEAFGGGTKLTVL
[1]
  IC50 of virus neutralization (TZM-BL, luciferase): 0.117 mg/L
[2]
  IC50 of virus neutralization (TZM-BL, luciferase): > 50 mg/L
[3]
  IC50 of virus neutralization (TZM-BL, luciferase): > 50 mg/L
[4]
  IC50 of virus neutralization (TZM-BL, luciferase): 0.081 mg/L
[5]
  IC50 of virus neutralization (TZM-BL, luciferase): > 50 mg/L
[6]
  IC50 of virus neutralization (TZM-BL, luciferase): 0.033 mg/L
[7]
  IC50 of virus neutralization (TZM-BL, luciferase): 0.037 mg/L

B2: Germ12 (antibody, V domains shown)
VH: B1 VH
VL: B1 VL with H35Q, K38R, M43L, A76D, E79D
[1]
  IC50 of virus neutralization (TZM-BL, luciferase): 0.267 mg/L
[2]
  IC50 of virus neutralization (TZM-BL, luciferase): > 50 mg/L
[3]
  IC50 of virus neutralization (TZM-BL, luciferase): > 50 mg/L
[4]
  IC50 of virus neutralization (TZM-BL, luciferase): 0.244 mg/L
[5]
  IC50 of virus neutralization (TZM-BL, luciferase): > 50 mg/L
[6]
  IC50 of virus neutralization (TZM-BL, luciferase): 0.092 mg/L
[7]
  IC50 of virus neutralization (TZM-BL, luciferase): 0.063 mg/L

B3: CysCA (antibody, V domains shown)
VH: ADLVQSGAVVKKPGDSVRISCEAQGYRFPDYIIHWIRRAPGQGPEWMGWMNPMGGQVNIPWKFQGRVSMTRDTSIETAFLDLRGLKSDDTAVYYCVRDRSNGSGKRFESSNWFLDLWGRGTAVTIQS
VL: B1 VL with G12A, C32A, H35Q, K38R, M43L, S72T, A76D, E77D, E79D
[1]
  IC50 of virus neutralization (TZM-BL, luciferase): 0.169 mg/L
[2]
  IC50 of virus neutralization (TZM-BL, luciferase): > 50 mg/L
[3]
  IC50 of virus neutralization (TZM-BL, luciferase): > 50 mg/L
[4]
  IC50 of virus neutralization (TZM-BL, luciferase): 0.034 mg/L
[5]
  IC50 of virus neutralization (TZM-BL, luciferase): > 50 mg/L
[6]
  IC50 of virus neutralization (TZM-BL, luciferase): ≤ 0.02 mg/L
[7]
  IC50 of virus neutralization (TZM-BL, luciferase): 0.035 mg/L

B4: NglycoSA (antibody, V domains shown)
VH: B3 VH with S103A
VL: B1 VL with G12A, H35Q, K38R, M43L, S72T, A76D, E77D, E79D
[1]
  IC50 of virus neutralization (TZM-BL, luciferase): 0.11 mg/L
[8]
  IC50 of virus neutralization (TZM-BL, luciferase): 0.151 mg/L
[2]
  IC50 of virus neutralization (TZM-BL, luciferase): > 50 mg/L
[9]
  IC50 of virus neutralization (TZM-BL, luciferase): 0.179 mg/L
[3]
  IC50 of virus neutralization (TZM-BL, luciferase): > 50 mg/L
[4]
  IC50 of virus neutralization (TZM-BL, luciferase): 0.05 mg/L
[5]
  IC50 of virus neutralization (TZM-BL, luciferase): > 50 mg/L
[6]
  IC50 of virus neutralization (TZM-BL, luciferase): 0.04 mg/L
[7]
  IC50 of virus neutralization (TZM-BL, luciferase): 0.037 mg/L
[10]
  IC50 of virus neutralization (TZM-BL, luciferase): 0.929 mg/L

B5: Cd4bs_H53MS_H54GY (antibody, V domains shown)
VH: B3 VH with M53S, G54Y
VL: B1 VL with G12A, H35Q, K38R, M43L, S72T, A76D, E77D, E79D
[1]
  IC50 of virus neutralization (TZM-BL, luciferase): 0.273 mg/L
[8]
  IC50 of virus neutralization (TZM-BL, luciferase): 0.096 mg/L
[2]
  IC50 of virus neutralization (TZM-BL, luciferase): 3 mg/L
[9]
  IC50 of virus neutralization (TZM-BL, luciferase): 0.15 mg/L
[3]
  IC50 of virus neutralization (TZM-BL, luciferase): 9.87 mg/L
[4]
  IC50 of virus neutralization (TZM-BL, luciferase): 0.047 mg/L
[5]
  IC50 of virus neutralization (TZM-BL, luciferase): 0.89 mg/L
[6]
  IC50 of virus neutralization (TZM-BL, luciferase): 0.044 mg/L
[7]
  IC50 of virus neutralization (TZM-BL, luciferase): 0.03 mg/L

B6: Germ6 (antibody, V domains shown)
VH: B3 VH with I19V, F79Y, I125V
VL: B1 VL with H35Q, K38R, M43L, A76D, E79D
[1]
  IC50 of virus neutralization (TZM-BL, luciferase): 0.102 mg/L
[2]
  IC50 of virus neutralization (TZM-BL, luciferase): > 50 mg/L
[3]
  IC50 of virus neutralization (TZM-BL, luciferase): > 50 mg/L
[4]
  IC50 of virus neutralization (TZM-BL, luciferase): 0.091 mg/L
[5]
  IC50 of virus neutralization (TZM-BL, luciferase): > 50 mg/L
[6]
  IC50 of virus neutralization (TZM-BL, luciferase): 0.062 mg/L
[7]
  IC50 of virus neutralization (TZM-BL, luciferase): 0.135 mg/L

B7: Germ18 (antibody, V domains shown)
VH: B1 VH with D3Q, V10E, D16A, R19K, Q25S, D82E
VL: B1 VL with H35Q, K38R, M43L, A76D, E79D
[1]
  IC50 of virus neutralization (TZM-BL, luciferase): 0.223 mg/L
[2]
  IC50 of virus neutralization (TZM-BL, luciferase): > 50 mg/L
[3]
  IC50 of virus neutralization (TZM-BL, luciferase): > 50 mg/L
[4]
  IC50 of virus neutralization (TZM-BL, luciferase): 0.081 mg/L
[5]
  IC50 of virus neutralization (TZM-BL, luciferase): > 50 mg/L
[6]
  IC50 of virus neutralization (TZM-BL, luciferase): 0.039 mg/L
[7]
  IC50 of virus neutralization (TZM-BL, luciferase): 0.036 mg/L

B8: Hydro2 (antibody, V domains shown)
VH: B3 VH with W61Q
VL: B1 VL with G12A, H35Q, K38R, M43L, S72T, A76D, E77D, E79D, A89N
[1]
  IC50 of virus neutralization (TZM-BL, luciferase): 0.131 mg/L
[2]
  IC50 of virus neutralization (TZM-BL, luciferase): > 50 mg/L
[3]
  IC50 of virus neutralization (TZM-BL, luciferase): > 50 mg/L
[4]
  IC50 of virus neutralization (TZM-BL, luciferase): 0.049 mg/L
[5]
  IC50 of virus neutralization (TZM-BL, luciferase): > 50 mg/L
[6]
  IC50 of virus neutralization (TZM-BL, luciferase): ≤ 0.02 mg/L
[7]
  IC50 of virus neutralization (TZM-BL, luciferase): 0.039 mg/L

B9: Germ12_NglycoSA_CysCA (antibody, V domains shown)
VH: B1 VH with S104A
VL: B1 VL with C32A, H35Q, K38R, M43L, A76D, E79D
[1]
  IC50 of virus neutralization (TZM-BL, luciferase): 0.088 mg/L
[2]
  IC50 of virus neutralization (TZM-BL, luciferase): > 50 mg/L
[3]
  IC50 of virus neutralization (TZM-BL, luciferase): > 50 mg/L
[4]
  IC50 of virus neutralization (TZM-BL, luciferase): 0.062 mg/L
[5]
  IC50 of virus neutralization (TZM-BL, luciferase): > 50 mg/L
[6]
  IC50 of virus neutralization (TZM-BL, luciferase): 0.028 mg/L
[7]
  IC50 of virus neutralization (TZM-BL, luciferase): 0.042 mg/L

B10: Germ23_NglycoSA_CysCV (antibody, V domains shown)
VH: B1 VH with D3Q, V10E, D16A, R19K, Q25S, D82E, S104A
VL: B1 VL with C32V
[1]
  IC50 of virus neutralization (TZM-BL, luciferase): 0.831 mg/L
[2]
  IC50 of virus neutralization (TZM-BL, luciferase): > 50 mg/L
[3]
  IC50 of virus neutralization (TZM-BL, luciferase): > 50 mg/L
[4]
  IC50 of virus neutralization (TZM-BL, luciferase): 0.064 mg/L
[5]
  IC50 of virus neutralization (TZM-BL, luciferase): > 50 mg/L
[6]
  IC50 of virus neutralization (TZM-BL, luciferase): ≤ 0.02 mg/L
[7]
  IC50 of virus neutralization (TZM-BL, luciferase): 0.05 mg/L

B11: CysCV (antibody, V domains shown)
VH: B3 VH
VL: B1 VL with G12A, C32V, H35Q, K38R, M43L, S72T, A76D, E77D, E79D
[1]
  IC50 of virus neutralization (TZM-BL, luciferase): 0.102 mg/L
[8]
  IC50 of virus neutralization (TZM-BL, luciferase): 0.079 mg/L
[2]
  IC50 of virus neutralization (TZM-BL, luciferase): > 50 mg/L
[9]
  IC50 of virus neutralization (TZM-BL, luciferase): 0.186 mg/L
[3]
  IC50 of virus neutralization (TZM-BL, luciferase): > 50 mg/L
[4]
  IC50 of virus neutralization (TZM-BL, luciferase): 0.037 mg/L
[5]
  IC50 of virus neutralization (TZM-BL, luciferase): > 50 mg/L
[6]
  IC50 of virus neutralization (TZM-BL, luciferase): ≤ 0.02 mg/L
[7]
  IC50 of virus neutralization (TZM-BL, luciferase): 0.035 mg/L
[10]
  IC50 of virus neutralization (TZM-BL, luciferase): 1.4 mg/L

B12: Germ23 (antibody, V domains shown)
VH: B1 VH with D3Q, V10E, D16A, R19K, Q25S, D82E
VL: B1 VL
[1]
  IC50 of virus neutralization (TZM-BL, luciferase): 0.182 mg/L
[2]
  IC50 of virus neutralization (TZM-BL, luciferase): > 50 mg/L
[3]
  IC50 of virus neutralization (TZM-BL, luciferase): > 50 mg/L
[4]
  IC50 of virus neutralization (TZM-BL, luciferase): 0.066 mg/L
[5]
  IC50 of virus neutralization (TZM-BL, luciferase): > 50 mg/L
[6]
  IC50 of virus neutralization (TZM-BL, luciferase): 0.037 mg/L
[7]
  IC50 of virus neutralization (TZM-BL, luciferase): 0.035 mg/L

— patent US20210040184A1 (ATRECA, published 2021)
